Results reported in patent publication US20220267447A1.

Key:
[1] = target: JAK1 activation loop phosphopeptide (Tyr1034 phosphorylated) (Homo sapiens); assay: ITC
[2] = target: JAK1 kinase domain (JH1) (Homo sapiens (Human)) (UniProt P23458); assay: cell-based or functional assay
[3] = target: JAK1-Y1034 phosphopeptide with an alanine substitution at the +3 position (Homo sapiens); assay: ITC
[4] = target: JAK2 kinase domain (JH1); assay: cell-based or functional assay
[5] = target: JAK3 kinase domain (JH1); assay: cell-based or functional assay
[6] = target: TYK2 kinase domain (JH1); assay: cell-based or functional assay

Sequence of JAK1 kinase domain (JH1) (Homo sapiens (Human)) (P23458 854-1154 limits assumed): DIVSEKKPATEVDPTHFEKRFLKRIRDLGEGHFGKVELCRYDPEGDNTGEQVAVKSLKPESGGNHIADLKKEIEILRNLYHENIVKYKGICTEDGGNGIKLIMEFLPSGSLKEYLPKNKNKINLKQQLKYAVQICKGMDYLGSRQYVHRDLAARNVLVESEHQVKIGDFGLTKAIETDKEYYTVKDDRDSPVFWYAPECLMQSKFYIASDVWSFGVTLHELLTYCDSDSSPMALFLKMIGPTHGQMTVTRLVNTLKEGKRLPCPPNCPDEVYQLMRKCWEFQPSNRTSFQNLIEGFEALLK
Sequence of human CIS lacking the N-terminal 34 residues (AN34), trimeric complex with elongin B and elongin C (Q9NSE2 35-258): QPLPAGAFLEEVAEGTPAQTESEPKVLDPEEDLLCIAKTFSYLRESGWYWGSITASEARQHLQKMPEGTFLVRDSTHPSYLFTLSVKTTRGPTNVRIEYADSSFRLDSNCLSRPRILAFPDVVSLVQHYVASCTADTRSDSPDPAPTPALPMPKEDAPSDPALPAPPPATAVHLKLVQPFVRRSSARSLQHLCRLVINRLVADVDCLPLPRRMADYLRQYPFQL
Sequence of human CIS lacking the N-terminal 34 residues (AN34), trimeric complex with elongin B and elongin C (Q15370 whole entry): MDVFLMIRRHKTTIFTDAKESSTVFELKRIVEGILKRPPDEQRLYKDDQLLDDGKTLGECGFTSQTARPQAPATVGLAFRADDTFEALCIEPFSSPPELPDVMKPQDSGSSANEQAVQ
Sequence of human CIS lacking the N-terminal 34 residues (AN34), trimeric complex with elongin B and elongin C (Q15369 17-112): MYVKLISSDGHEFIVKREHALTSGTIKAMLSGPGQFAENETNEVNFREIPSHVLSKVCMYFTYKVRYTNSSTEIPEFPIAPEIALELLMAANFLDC

human CIS lacking the N-terminal 34 residues (AN34), trimeric complex with elongin B and elongin C (from UniProt Q9NSE2 35-258; Q15370 1-118; Q15369 17-112)
Kd [1]: 2200 to 10000 nM

human CIS lacking both the N-terminal region (residues 1-66) and the PEST motif (ANT/APEST), trimeric complex with elongin B and elongin C (from UniProt Q9NSE2 67-258; Q15370 1-118; Q15369 17-112)
IC50, inhibition of the JAK1 kinase domain (JH1) in an in vitro kinase reaction [2]: 600 nM
fold reduction of binding against the wild-type JAK1-Y1034 phosphopeptide [3]: 4 fold

hCIS-SH2-BC: recombinant trimeric complex of a human GST-CIS construct (hCIS-SH2) with Elongins B and C (from UniProt Q9NSE2 66-258; Q15370 1-118; Q15369 17-112)
IC50, inhibition of JAK1 phosphorylation of a substrate peptide (in vitro kinase assay) [2]: 120 nM
efficiency of JAK1 JH1 kinase inhibition relative to SOCS1 [2]: 100 fold
kinase inhibition relative to inhibition of JAK1 (in vitro kinase assay with JH1 domains) [4]: 20 fold
kinase inhibition relative to inhibition of JAK1 (in vitro kinase assay with JH1 domains) [5]: 20 fold
kinase inhibition relative to inhibition of JAK1 (in vitro kinase assay with JH1 domains) [6]: 20 fold
